The results in this text go back to article PMC5897525 (2018).

For assay [1], the target named is recombinant Fel d 1 produced with a myc-myc-hexahistidine tag (rFel d 1.mmh) (cat, UniProt P30440-1 18-109; P30438 23-92). Put plainly: SPR; 25°C. Background: SPR reads the build-up and loss of mass on a sensor chip optically.
Assay [2] addresses rFel d 1.mFc. Put plainly: SPR; 25°C; dimeric.

recombinant Fel d 1 produced with a myc-myc-hexahistidine tag (rFel d 1.mmh), sequence (P30440 other isoform, or with tags, fused parts or gaps): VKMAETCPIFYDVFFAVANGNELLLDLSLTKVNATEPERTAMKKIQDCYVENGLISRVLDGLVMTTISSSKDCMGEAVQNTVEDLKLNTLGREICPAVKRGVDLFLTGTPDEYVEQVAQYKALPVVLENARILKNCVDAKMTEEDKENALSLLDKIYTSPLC

B1: REGN1909 (antibody, V domains shown)
VH: EVQLVESGGGLVQPGGSLRLSCAASGFTFSSYAMSWVRQAPGKGLEWVSAISGRGYNADYADSVKGRFTISRDNSKNTLYLQMNSLRAEDTAVYYCAKLEYFDYWGQGTLVTVSS
VL: DIQMTQSPSTLSASVGDRVTITCRASQSISSWLAWYQQKPGKAPKLLIYKASSLESGVPSRFSGSGSGTDFTLTISSLRPEDFATYYCQQYNSYPLTFGGGTKVEIK
By Kd is commonly meant the free concentration of one partner at which half of the binding sites on the other are occupied at equilibrium, for simple one-to-one binding. On to B1, for which the Kd in assay [1] stood at 0.912 nM; in assay [2], 0.0978 nM.
